In patent US8431111B2, “Peptide imaging agents” (GE Healthcare Limited, priority 2007, dated 2013):
Where a SMILES comes first, the peptide text is derived from it. Bridges are numbered along the chain shown (N, C = ends). The star is where a group is joined. X1 = CC1=CC(C)(C)N(CCCS(=O)(=O)O)c2cc3c(cc21)/C(=C/C=C/C1=[N+](CCCS(=O)(=O)O)c2ccc(S(=O)(=O)[O-])cc2C1(C)CCCC(=O)*)C=C(C(C)(C)C)O3

Assay: Limited acute dose toxicity study in male rats
Type: in vivo, rat
Method: A limited acute dose toxicity study was conducted to investigate the tolerance of Compound 6 at 100 times the preclinical imaging dose (50 nmol/kg body weight). The compound was injected intravenously in male rats, and the animals were sacrificed at 1, 14, 21 and 28 days post injection (p.i.). At necropsy, the major organs were inspected for gross pathology, and the kidneys were taken into neutral buffered formalin for subsequent histomorphological evaluation. A weak blue colouration of the skin and a moderate blue colouration of the urine were observed immediately after injection, which disappeared within 1 day p.i. […] The other minor changes seen were incidental and common in young adult laboratory rats. Strong fluorescence staining of blood vessels in the kidney was observed on day 1 p.i.

CC(=O)N[C@@H](C)C(=O)NCC(=O)N[C@@H](CO)C(=O)N[C@H]1CSSC[C@@H](C(=O)N[C@@H](Cc2ccc(O)cc2)C(=O)N[C@@H](CCC(=O)O)C(=O)N[C@H](C(=O)N[C@@H](CCC(=O)O)C(=O)NCC(=O)N[C@H](C(=O)NCC(=O)NCC(=O)NCC(=O)N[C@@H](CCCCNC(=O)CCCC2(C)C(/C=C/C=C3\C=C(C(C)(C)C)Oc4cc5c(cc43)C(C)=CC(C)(C)N5CCCS(=O)(=O)O)=[N+](CCCS(=O)(=O)O)c3ccc(S(=O)(=O)[O-])cc32)C(N)=O)[C@@H](C)O)[C@@H](C)O)NC(=O)[C@H](Cc2c[nH]c3ccccc23)NC(=O)[C@@H]2CSSC[C@H](NC(=O)[C@H](Cc3ccc(O)cc3)NC1=O)C(=O)N[C@@H](CO)C(=O)NCC(=O)N1CCC[C@H]1C(=O)N1CCC[C@H]1C(=O)N[C@@H](CCCNC(=N)N)C(=O)N[C@@H](Cc1ccccc1)C(=O)N[C@@H](CCC(=O)O)C(=O)N2 (stereo partly drawn) [Compound 6] (Ac-AGSCYCSGPPRFECWCYETEGTGGGK(X1)-NH2; disulfide 4-16, 6-14)
Tolerance of single intravenous administration (100 times the anticipated clinical dose): well tolerated and without any drug substance related adverse effects
Gross appearance of the kidneys at necropsy (day 1 p.i.): diffusely green
Time until blue colouration of skin and urine disappeared (i.v., weak blue colouration of skin, moderate of urine, immediately after injection): ≤ 1 day p.i.
